We go through one molecule from US20140127211A1.

For assay [1], the target named is Notch 1-3 NRR domain swap chimera: B of Notch1; A, C, hd1, hd2 of Notch3 (row 5, unnamed on the sheet) (human). The assay can be described thus: ELISA: NRR-Fc protein coated at 1 ug/ml, antibody applied at 5 ug/ml, goat anti-human Fc-HRP, TMB, O.D. 450 nM. (In general: In an ELISA, binding on a coated surface is turned into a signal by an enzyme label.)
In assay [2] the target is Notch 1-3 NRR domain swap chimera: C of Notch1; A, B, hd1, hd2 of Notch3 (row 6, unnamed on the sheet) (human). The assay is described as above.

B1: rat-human chimeric antibody 75 (ch75) (antibody, V domains shown)
VH: QVKLLQSGAALVKPGASVKMSCKASGYAFTDYWVTWVKQSHGKSLEWIGEISPNSGGTNFNEKFKGKATLTVDKSTSTAYMELSRLTSEDSAIYYCTRGEIRYNWFAYWGQGTLVTVSS
VL: NIVMTQSPKSMSISVGDRVTMNCKASQNVGNNIAWYQQKPGQSPKLLIYYASNRYTGVPDRFTGGGYGTDFTLTINSMQAEDAAFYYCQRLYNSPFTFGSGTKLEIK
On to B1, for which the O.D. 450 nM (ELISA, relative binding capacity) in assay [1] worked out at 2.37; in assay [2], 0.8.
